From paper PMC5376091

Biological target: wild type (WT) Aβ40 peptide (human)

Aβ40 A2T variant, full-length (peptide)
ThT fibrillization of 25 μM WT Aβ40 co-incubated with full-length A2T (WT to A2T 1 to 1 and 1 to 2): extension of the lag phase: 8 h

Aβ40 A2V variant, full-length (peptide)
ThT fibrillization of 25 μM WT Aβ40 co-incubated with full-length A2V (WT to A2V 1 to 1 and 1 to 2): shortening of the lag time: 6 h
ThT signal at the final plateau of 25 μM WT Aβ40 mixed with two fold full-length A2V, against WT alone: 40%

A2V NTF(1–10) (peptide)
ThT fibrillization of 25 μM WT Aβ40 co-incubated with A2V NTF(1–10) (1 to 1 and 1 to 6): shortening of the lag phase: 8 h
ThT signal of the end-point product of 25 μM WT Aβ40 with A2V NTF(1–10) (1 fold and 6 fold), against WT only: 22%

B1: A2T NTF(1–10) (peptide)
chain: DTEFRHDSYG
ThT fibrillization of 25 μM WT Aβ40 co-incubated with A2T NTF(1–10) (1 to 1 and 1 to 6): decrease of the ThT plateau: 20%
